Here are results for 27 molecules from article PMC10786891, “Massively parallel profiling of RNA-targeting CRISPR-Cas13d”.

T1: EsCas13d, nuclease-dead (Eubacterium siraeum, UniProt B0MS50, R295A;H300A;R849A;H854A)
T1 sequence: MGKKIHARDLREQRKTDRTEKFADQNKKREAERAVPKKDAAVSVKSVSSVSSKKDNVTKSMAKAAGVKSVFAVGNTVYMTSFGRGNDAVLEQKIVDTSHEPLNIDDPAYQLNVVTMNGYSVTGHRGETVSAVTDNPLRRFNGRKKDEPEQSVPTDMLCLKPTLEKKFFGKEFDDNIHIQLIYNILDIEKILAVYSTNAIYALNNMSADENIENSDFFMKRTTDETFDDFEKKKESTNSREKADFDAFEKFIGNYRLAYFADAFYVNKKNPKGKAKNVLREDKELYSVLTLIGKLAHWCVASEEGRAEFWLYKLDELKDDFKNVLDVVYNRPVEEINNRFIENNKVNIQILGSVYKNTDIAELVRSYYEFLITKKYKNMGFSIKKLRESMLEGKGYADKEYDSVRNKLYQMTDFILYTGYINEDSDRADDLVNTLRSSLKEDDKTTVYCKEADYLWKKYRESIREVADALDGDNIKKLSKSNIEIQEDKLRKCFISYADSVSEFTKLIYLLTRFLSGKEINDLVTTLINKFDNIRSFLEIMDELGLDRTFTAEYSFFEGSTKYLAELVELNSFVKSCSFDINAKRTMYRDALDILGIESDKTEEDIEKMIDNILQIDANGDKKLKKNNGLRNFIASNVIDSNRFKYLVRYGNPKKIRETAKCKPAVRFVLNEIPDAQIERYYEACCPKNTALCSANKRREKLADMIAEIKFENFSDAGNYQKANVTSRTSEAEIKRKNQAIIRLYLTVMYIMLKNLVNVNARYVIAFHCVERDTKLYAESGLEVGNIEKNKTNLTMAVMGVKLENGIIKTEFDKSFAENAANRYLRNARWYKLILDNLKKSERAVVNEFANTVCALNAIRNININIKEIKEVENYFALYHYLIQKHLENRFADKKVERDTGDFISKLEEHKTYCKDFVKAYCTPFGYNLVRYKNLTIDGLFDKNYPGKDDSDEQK

B1: target 1 C2G,A14G (mixed)
RNA 1: CACCCGUGCAAAAAUGCAGGGGUCUAAAACUGAGCGGAUAACCUCUCUAUGG
RNA 2: GGGAAUGGAUCCACAUCUACGAAUUCGUACCAUAGAGGGGUUAUCCGCUGACCGAGAUCGGAAGAGCACACGU
B2: target 1 C6A,U19A (mixed)
RNA 1: B1 RNA 1
RNA 2: B1 RNA 2 with U33A, G38A, C46A, G50C
B3: target 1 insC 3' of 12,insG 3' of 6 (mixed)
RNA 1: B1 RNA 1
RNA 2: GGGAAUGGAUCCACAUCUACGAAUUCGUACCAUAGAGAGGCUUAUCCGGCUCACCGAGAUCGGAAGAGCACACGU
B4: target 1 C7U,A14C (mixed)
RNA 1: B1 RNA 1
RNA 2: B1 RNA 2 with G38C, C45U, G50C
B5: target 1 C2A,G12U (mixed)
RNA 1: B1 RNA 1
RNA 2: B1 RNA 2 with G38A, G40U, G50A
B6: target 1 insA 3' of 12,insG 3' of 2 (mixed)
RNA 1: B1 RNA 1
RNA 2: B3 RNA 2 with C41A, G49C, C50U, U51C, C52G
B7: target 1 insA 3' of 12,insA 3' of 7 (mixed)
RNA 1: B1 RNA 1
RNA 2: B3 RNA 2 with C41A, C47A, G48C
B8: target 1 del7,del22 (mixed)
RNA 1: B1 RNA 1
RNA 2: GGGAAUGGAUCCACAUCUACGAAUUCGUACAUAGAGAGGUUAUCGCUCACCGAGAUCGGAAGAGCACACGU
B9: target 1 insU 3' of 2,insG 3' of 2 (mixed)
RNA 1: B1 RNA 1
RNA 2: B3 RNA 2 with C41U, U43A, A44U, U45C, C47G, G48C, G49U, C52G
B10: target 1 insG 3' of 11,insC 3' of 8 (mixed)
RNA 1: B1 RNA 1
RNA 2: B3 RNA 2 with C41U, U42G, G48C
B11: target 1 insA 3' of 6,insC 3' of 5 (mixed)
RNA 1: B1 RNA 1
RNA 2: B3 RNA 2 with C41U, U43A, A44U, U45C, C47A, G49C
B12: target 1 C2G,C22A (mixed)
RNA 1: B1 RNA 1
RNA 2: B1 RNA 2 with C30A, G38A
B13: target 1 U8A,C21U (mixed)
RNA 1: B1 RNA 1
RNA 2: B1 RNA 2 with C31U, G38A, U44A, G50C
B14: target 1 insA 3' of 8,insG 3' of 4 (mixed)
RNA 1: B1 RNA 1
RNA 2: B3 RNA 2 with C41U, U43A, A44U, U45A, G49C, C50G
B15: target 1 insU 3' of 21,insC 3' of 10 (mixed)
RNA 1: B1 RNA 1
RNA 2: GGGAAUGGAUCCACAUCUACGAAUUCGUACCUAUAGAGAGGUUCAUCCGCUCACCGAGAUCGGAAGAGCACACGU
B16: target 1 C6A,A16G (mixed)
RNA 1: B1 RNA 1
RNA 2: B1 RNA 2 with A36G, G38A, C46A, G50C
B17: target 1 insC 3' of 19,insC 3' of 18 (mixed)
RNA 1: B1 RNA 1
RNA 2: GGGAAUGGAUCCACAUCUACGAAUUCGUACCAUCACGAGAGGUUAUCCGCUCACCGAGAUCGGAAGAGCACACGU
B18: target 1 insA 3' of 19,insU 3' of 5 (mixed)
RNA 1: B1 RNA 1
RNA 2: B3 RNA 2 with G35A, A36G, G37A, A38G, G39A, C41G, G49U
B19: target 1 A16C,G17U (mixed)
RNA 1: B1 RNA 1
RNA 2: B1 RNA 2 with G35U, A36C, G38A, G50C
B20: target 1 insC 3' of 19 (mixed)
RNA 1: B1 RNA 1
RNA 2: GGGAAUGGAUCCACAUCUACGAAUUCGUACCAUCAGAGAGGUUAUCCGCUCACCGAGAUCGGAAGAGCACACGU
B21: target 1 insG 3' of 16,insC 3' of 9 (mixed)
RNA 1: B1 RNA 1
RNA 2: B3 RNA 2 with A38G, G39A, C41G, U45C, C46U, G48C
B22: target 1 A9U,G13A (mixed)
RNA 1: B1 RNA 1
RNA 2: B1 RNA 2 with G38A, G39A, A43U, G50C
B23: target 1 insU 3' of 22,insU 3' of 9 (mixed)
RNA 1: B1 RNA 1
RNA 2: B15 RNA 2 with C31U, U32C, C44A, A45U
B24: target 1 G12A,G17C (mixed)
RNA 1: B1 RNA 1
RNA 2: B1 RNA 2 with G35C, G38A, G40A, G50C
B25: target 1 insU 3' of 16,insC 3' of 16 (mixed)
RNA 1: B1 RNA 1
RNA 2: B17 RNA 2 with C34A, A35G, C36A, G37U, A38C
B26: target 1 insC 3' of 18 (mixed)
RNA 1: B1 RNA 1
RNA 2: B20 RNA 2 with C34A, A35C
B27: target 1 insC 3' of 22,insA 3' of 17 (mixed)
RNA 1: B1 RNA 1
RNA 2: B17 RNA 2 with A32C, U33A, C34U, C36G, G37A

Positions count from the first letter of the chain named. In names and notes the source's numbering stands.

For this data set, the target named is T1, EsCas13d, nuclease-dead. Description: crRNA (strand 1, pre-loaded); Mg2+; 40 mM Tris-HCl pH 7.5, 150 mM NaCl, 6 mM MgCl2, 1 mM DTT, 0.1% Tween-20, 0.2 mg/ml BSA; 25 C; 10 min per concentration, then washed. As to conditions: tags: His6-TwinStrep-SUMO cleaved; N-terminal SNAP kept (SNAP-Surface 488); label: 3' end held by stalled T7 RNA polymerase.
For B1, the Kd is 15.6 ± 1.8 nM.
For B2 the value was 29.8 ± 1.7 nM; for B3, 9.1 ± 1.6 nM; for B4, 30 ± 4 nM.
For B5 the value was 9.2 ± 0.4 nM; for B6, 30 ± 4 nM.
In the case of B7 it was 25.9 ± 2.4 nM; in that of B8, 22.6 ± 1.3 nM; in that of B9, 8.6 ± 0.6 nM.
For the molecule B10, the Kd amounted to 39 ± 6 nM.
In the case of B11 it was 23.9 ± 1.9 nM.
In the case of B12 it was 16.9 ± 1.8 nM; in that of B13, 9.1 ± 0.4 nM; in that of B14, 7.7 ± 0.5 nM.
Turning to B15, binding was characterised by a dissociation constant (Kd) of 51 ± 9 nM. This Kd lies about 6.6-fold higher than the previous one.
In the case of B16 it was 28.8 ± 1.4 nM; in that of B17, 45.8 ± 3.4 nM.
In the case of B18 it was 41 ± 6 nM; in that of B19, 28 ± 1.4 nM; in that of B20, 26.9 ± 2.2 nM.
In the case of B21 it was 23.4 ± 1.1 nM; in that of B22, 12.9 ± 0.9 nM; in that of B23, around 60 nM.
The molecule B24 registered a Kd of 34 ± 8 nM.
The molecule B25 had a Kd of 47 ± 4 nM.
In the case of B26 it was 30.3 ± 1.9 nM; in that of B27, 33 ± 5 nM.
